In the supplement of paper PMC5998384:

Columns and labels:
[1] = test system: HeLa Kyoto; assay: thermal stability score vs G1/S (z-score of summed log2 fold changes over temperatures); higher = more thermally stable than in G1/S
[2] = test system: HeLa Kyoto; assay: melting temperature (median over replicates), in situ; higher = more thermally stable
[3] = cell cycle stage: early G1 (4.5 h after nocodazole release)
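For melting temperature (median over replicates), in situ in this document: HeLa Kyoto cells synchronized by double thymidine or nocodazole block, proteins quantified by TMT10plex mass spectrometry, three independent biological replicates.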
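For thermal stability score vs G1/S (z-score of summed log2 fold changes over temperatures) in this document: synchronized HeLa Kyoto cells, proteins quantified by TMT10plex mass spectrometry, three biological replicates, mitosis taken 0.5 h after nocodazole release, G1/S directly after double thymidine block.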

MARK3, sequence (chain, as listed by the source): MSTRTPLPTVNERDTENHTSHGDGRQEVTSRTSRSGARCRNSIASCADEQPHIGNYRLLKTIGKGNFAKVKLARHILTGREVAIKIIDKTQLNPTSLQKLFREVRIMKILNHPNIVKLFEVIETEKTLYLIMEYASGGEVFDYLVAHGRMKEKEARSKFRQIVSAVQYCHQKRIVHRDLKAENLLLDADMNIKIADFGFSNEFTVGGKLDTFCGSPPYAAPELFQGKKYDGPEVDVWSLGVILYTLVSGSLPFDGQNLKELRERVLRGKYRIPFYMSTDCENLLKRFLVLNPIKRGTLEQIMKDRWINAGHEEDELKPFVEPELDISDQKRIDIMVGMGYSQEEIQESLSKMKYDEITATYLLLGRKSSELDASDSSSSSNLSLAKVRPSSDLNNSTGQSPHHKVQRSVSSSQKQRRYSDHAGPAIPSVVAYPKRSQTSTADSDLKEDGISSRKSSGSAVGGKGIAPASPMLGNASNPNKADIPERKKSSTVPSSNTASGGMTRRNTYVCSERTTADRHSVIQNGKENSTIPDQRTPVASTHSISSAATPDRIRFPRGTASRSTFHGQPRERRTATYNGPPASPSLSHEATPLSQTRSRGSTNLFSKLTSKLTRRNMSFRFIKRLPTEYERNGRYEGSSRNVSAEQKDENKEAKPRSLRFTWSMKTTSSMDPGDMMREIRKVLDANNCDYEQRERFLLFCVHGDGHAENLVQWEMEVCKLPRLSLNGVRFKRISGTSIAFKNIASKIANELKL

| Substance | thermal stability score [1, 3] | thermal stability score ([1]; cell cycle stage: mitosis) | melting temperature ([2]; cell cycle stage: G1/S) [°C] | melting temperature ([2]; cell cycle stage: mitosis) [°C] |
| --- | --- | --- | --- | --- |
| MAAPLVLVLVVAVTVRAALFRSSLAEFISERVEVVSPLSSWKRVVEGLSLLDLGVSPYSGAVFHETPLIIYLFHFLIDYAELVFMITDALTAIALYFAIQDFNKVVFKKQKLLLELDQYAPDVAELIRTPMEMRYIPLKVALFYLLNPYTILSCVAKSTCAINNTLIAFFILTTIKGSAFLSAIFLALATYQSLYPLTLFVPGLLYLLQRQYIPVKMKSKAFWIFSWEYAMMYVGSLVVIICLSFFLLSSWDFIPAVYGFILSVPDLTPNIGLFWYFFAEMFEHFSLFFVCVFQINVFFYTIPLAIKLKEHPIFFMFIQIAVIAIFKSYPTVGDVALYMAFFPVWNHLYRFLRNIFVLTCIIIVCSLLFPVLWHLWIYAGSANSNFFYAITLTFNVGQILLISDYFYAFLRREYYLTHGLYLTAKDGTEAMLVLK [PIGU] | 0.038 | -0.34 | – | – |
| MAKVSVLNVAVLENPSPFHSPFRFEISFECSEALADDLEWKIIYVGSAESEEFDQILDSVLVGPVPAGRHMFVFQADAPNPSLIPETDAVGVTVVLITCTYHGQEFIRVGYYVNNEYLNPELRENPPMKPDFSQLQRNILASNPRVTRFHINWDNNMDRLEAIETQDPSLGCGLPLNCTPIKGLGLPGCIPGLLPENSMDCI [ASF1B] | -3.88 | -1.16 | – | – |
| MARK3 | -0.371 | 0.161 | – | – |
| MARKALKLASWTSMALAASGIYFYSNKYLDPNDFGAVRVGRAVATTAVISYDYLTSLKSVPYGSEEYLQLRSKSWPVFLQVHLRSARRLCELCCANRGTFIKVGQHLGALDYLLPEEYTSTLKVLHSQAPQSSMQEIRQVIREDLGKEIHDLFQSFDDTPLGTASLAQVHKAVLHDGRTVAVKVQHPKVRAQSSKDILLMEVLVLAVKQLFPEFEFMWLVDEAKKNLPLELDFLNEGRNAEKVSQMLRHFDFLKVPRIHWDLSTERVLLMEFVDGGQVNDRDYMERNKIDVNEISRHLGKMYSEMIFVNGFVHCDPHPGNVLVRKHPGTGKAEIVLLDHGLYQMLTEEFRLNYCHLWQSLIWTDMKRVKEYSQRLGAGDLYPLFACMLTARSWDSVNRGISQAPVTATEDLEIRNNAANYLPQISHLLNHVPRQMLLILKTNDLLRGIEAALGTRASASSFLNMSRCCIRALAEHKKKNTCSFFRRTQISFSEAFNLWQINLHELILRVKGLKLADRVLALICWLFPAPL [ADCK1] | 0.277 | -0.197 | – | – |
| MAVPGCNKDSVRAGCKKCGYPGHLTFECRNFLRVDPKRDIVLDVSSTSSEDSDEENEELNKLQALQEKRINEEEEKKKEKSKEKIKLKKKRKRSYSSSSTEEDTSKQKKQKYQKKEKKKEKKSKSKKGKHHKKEKKKRKKEKHSSTPNSSEFSRK [SREK1IP1] | -0.6 | -4.29 | – | – |
| MFAKGKGSAVPSDGQAREKLALYVYEYLLHVGAQKSAQTFLSEIRWEKNITLGEPPGFLHSWWCVFWDLYCAAPERRDTCEHSSEAKAFHDYSAAAAPSPVLGNIPPNDGMPGGPIPPGFFQGPPGSQPSPHAQPPPHNPSSMMGPHSQPFMSPRYAGGPRPPIRMGNQPPGGVPGTQPLLPNSMDPTRQQGHPNMGGSMQRMNPPRGMGPMGPGPQNYGSGMRPPPNSLGPAMPGINMGPGAGRPWPNPNSANSIPYSSSSPGTYVGPPGGGGPPGTPIMPSPADSTNSSDNIYTMINPVPPGGSRSNFPMGPGSDGPMGGMGGMEPHHMNGSLGSGDIDGLPKNSPNNISGISNPPGTPRDDGELGGNFLHSFQNDNYSPSMTMSV [SSBP3] | – | – | 52.4 | – |
| MGDEKDSWKVKTLDEILQEKKRRKEQEEKAEIKRLKNSDDRDSKRDSLEEGELRDHRMEITIRNSPYRREDSMEDRGEEDDSLAIKPPQQMSRKEKAHHRKDEKRKEKRRHRSHSAEGGKHARVKEKEREHERRKRHREEQDKARREWERQKRREMAREHSRRERDRLEQLERKRERERKMREQQKEQREQKERERRAEERRKEREARREVSAHHRTMREDYSDKVKASHWSRSPPRPPRERFELGDGRKPGEARPAPAQKPAQLKEEKMEERDLLSDLQDISDSERKTSSAESSSAESGSGSEEEEEEEEEEEEEGSTSEESEEEEEEEEEEEEETGSNSEEASEQSAEEVSEEEMSEDEERENENHLLVVPESRFDRDSGESEEAEEEVGEGTPQSSALTEGDYVPDSPALSPIELKQELPKYLPALQGCRSVEEFQCLNRIEEGTYGVVYRAKDKKTDEIVALKRLKMEKEKEGFPITSLREINTILKAQHPNIVTVREIVVGSNMDKIYIVMNYVEHDLKSLMETMKQPFLPGEVKTLMIQLLRGVKHLHDNWILHRDLKTSNLLLSHAGILKVGDFGLAREYGSPLKAYTPVVVTLWYRAPELLLGAKEYSTAVDMWSVGCIFGELLTQKPLFPGKSEIDQINKVFKDLGTPSEKIWPGYSELPAVKKMTFSEHPYNNLRKRFGALLSDQGFDLMNKFLTYFPGRRISAEDGLKHEYFRETPLPIDPSMFPTWPAKSEQQRVKRGTSPRPPEGGLGYSQLGDDDLKETGFHLTTTNQGASAAGPGFSLKF [CDK11B] | – | – | 46.5 | 50.3 |
| MGLELFLDLVSQPSRAVYIFAKKNGIPLELRTVDLVKGQHKSKEFLQINSLGKLPTLKDGDFILTESSAILIYLSCKYQTPDHWYPSDLQARARVHEYLGWHADCIRGTFGIPLWVQVLGPLIGVQVPKEKVERNRTAMDQALQWLEDKFLGDRPFLAGQQVTLADLMALEELMQPVALGYELFEGRPRLAAWRGRVEAFLGAELCQEAHSIILSILEQAAKKTLPTPSPEAYQAMLLRIARIP [GSTT2] | – | – | 54.9 | 55.1 |
